How the values were obtained:
[1] = tested on: C57BI/6 male mice, colitis induced by TNBS; assay: Acute inflammatory colitis model induced by TNBS; type: in vivo; conditions: FIG. 3, 2G1 10 μg, RvE1 1 μg per mouse i.p.
Method: FIG. 3. […] Mice received 200 μL of the haptenating agent TNBS at 5% in 50% ethanol on day 0 and then were injected with isotype control hIgG1 (10 μg per mouse) (x), RvE1 (1 μg per mouse) daily (•), or 2G1 antibody (10 μg per mouse) three times ( ) for 5 days, or non-treated (wild type animals) (▾). Mice were sacrificed colon length was measured in each condition.
Colitis was induced in 8-10 weeks-old-C57BI/6 male mice by intrarectal injection of 200 μL of the haptenating agent TNBS at 5% in 50% ethanol on day 0. Treatments were injected intra-peritoneally; RvE1 (1 μg per mouse) daily for three days, or 2G1 antibody (10 μg per mouse) twice for 3 days. Colitis follow-up consisting of body weight and stool score (0: normal stool; 4: blood in stool) parameters were performed daily (data not represented). When mice are euthanized, colon length representing the pathology severity was measured.

[2] = tested on: Akt and Erk proteins (CMKLR1 pathway); assay: Western blot of Akt and Erk phosphorylation in mice M1 macrophages; type: cell-based; conditions: FIG. 18; mice M1, 2 μg/mL, after 10 to 30 minutes of incubation
Method: FIG. 18. Study of the CMKLR1 pathway activation: Akt and Erk phosphorylation. Western blot analysis of the ERK and AKT activation pathway after 5, 10 and 30 minutes of mice M1 cell incubation with 2G1 or RvE1. The Phosphorylated protein Akt or Erk were assessed using P-Akt antibody or P-Erk antibody (p44/42). A. Erk and Akt activation with RvE1. B. Erk and Akt activation with 2G1.
Mice pro-inflammatory macrophages (M1) were generated from bone marrow with M-CSF and polarized with IFN-gamma (IFNg) and LPS. Briefly, bone marrow cells were collected by flushing the femoral bone and cultured with 100 ng/mL of mM-CSF for 5 days and then polarized with 20 ng/ml of IFNg and 100 ng/mL of LPS for 24 h. Then, they were deprived of FBS for 24 hours with RPMI FBS 2% medium. Finally, mice M1 were treated with 2 μg/mL of 2G1 antibody at different times: 5, 10 and 30 minutes. Cells were collected in a RIPA buffer. The protein concentration was measured by a BCA protein kit assay. Proteins were denatured by heating at 95° C. for 5 minutes and diluted in DTT and Laemmli solution. After migration and transfer, the nitrocellulose membrane was blocked with 5% BSA in TBS-T for 2 hours. […] Western blot Images were quantified by Multi Gauge software

CMKLR1 receptor = target: T1, CMKLR1 receptor (Homo sapiens, UniProt Q99788); assay: Competition with Chemerin in cAMP production by CMKLR1 receptor, CHO-K1 CMKLR1 Gi cells; type: cell-based; conditions: FIG. 20A; antibody 1 μM to 1 nM, chemerin 2 nM
T1 construct: host or cells: CHO-K1
T1 sequence (Q99788 1-373): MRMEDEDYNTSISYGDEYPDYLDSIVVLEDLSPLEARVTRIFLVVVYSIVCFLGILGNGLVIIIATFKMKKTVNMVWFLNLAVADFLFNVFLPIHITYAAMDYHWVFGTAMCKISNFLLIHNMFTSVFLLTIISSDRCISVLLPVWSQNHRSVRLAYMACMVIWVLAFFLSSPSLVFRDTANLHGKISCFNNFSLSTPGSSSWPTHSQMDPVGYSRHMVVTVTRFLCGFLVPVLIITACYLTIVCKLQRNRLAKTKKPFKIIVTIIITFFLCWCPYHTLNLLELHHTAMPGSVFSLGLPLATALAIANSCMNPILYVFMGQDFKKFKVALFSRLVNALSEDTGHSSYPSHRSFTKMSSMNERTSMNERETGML
Method: The day before the experiment CHO-K1 CMKLR1 Gi cells (Discover'X ref 95-0080C2) were plated in pre-warmed cell reagent then plated in a 96-well plate at 100 μl/well of cells as (Discover'X ref 15-103) and incubated 24 hours at 37° C., in a 5% CO2 humidified incubator for 24 hours.
For the detection CAMP, antibody reagent and cAMP working detection solution was added to the plate for 1 hour at room temperature, then CAMP solution A was added, and cells incubated 3 hours at room temperature in the dark. Bioluminescence was read with a plate reader with 0.5 s integration.

[3] = tested on: C57BI/6 male mice, colitis induced by DSS; assay: Acute inflammatory colitis model induced by DSS; type: in vivo
Method: FIG. 2. […] Mice were injected after 6 days of DSS induction with isotype control hIgG1 (10 μg per mouse) (x), RvE1 (1 μg per mouse) daily (•), or 2G1 antibody (10 μg per mouse) three times ( ) for 5 days. Wild type mice, not treated, are represented by an ▾. A. Animal weight loss. B. Animal stool score C. Colon length. D. Resolution index.
Colitis was induced in 8-10 weeks-old-C57BI/6 male mice by adding 2% (wt/vol) of DSS to the sterile drinking ad libitum water for 6 days. Treatments were injected intra-peritoneally: Isotype control hIgG1 (10 μg per mouse), RvE1 (1 μg per mouse) daily, or 2G1 antibody (10 μg per mouse) three times for 5 days. Colitis follow-up consisting of body weight and stool score (0: normal stool; 4: blood in stool) parameters were performed daily. When mice were euthanized, colon length representing the pathology severity was measured. Resolution index was determined in the different conditions as described in Bannenberg et al., 2005.

B1: 2G1: chimeric anti-CMKLR1 antibody, murine variable regions (SEQ ID No: 10 and 17), human IgG1 constant regions; VH-CDR3 variant LI (antibody, V domains shown)
VH: METDTLLLWVLLLWVPGSTGDEVQLVASGGGLVQPGGSLKLSCAASGFTFSSYGMSWVRQTPDRRLELVATINRYGGSTYYPDSVKGRFTISRDNAKNTLYLQMSSLKSEDTAMYYCPRLIYYGNEGDSWGQGTTLTVSS
VL: METDTLLLWVLLLWVPGSTGDQIVLTQSPAIMSASPGEKVTMTCSASSSVSFMHWYQQKSGTSPKRWIYDTTKLTSGVPARFSGSGSGTFYSLTISSMEAEDAATYYCQQWNSKPPLTFGPGTKLELKR
modifications: human IgG1 constant regions
notes: VH-CDR3 variant LI
colon length [1]: the same as normal animal (wt) | activation (phosphorylation) of Akt protein [2]: able to induce the activation | activation (phosphorylation) of Erk protein [2]: able to induce the activation | reversal of Chemerin-induced inhibition of forskolin-dependent cAMP production (CMKLR1 receptor): could not revert this inhibition of production | overall state of the animals ([3]; 10 μg per mouse i.p. three times, vs control antibody or RvE1): better overall state | weight loss ([3]; FIG. 2A, 10 μg per mouse i.p.): lost significantly less weight | score stool ([3]; FIG. 2B, 10 μg per mouse i.p.): significantly better
